According to a protein production outcome set (Wang et al. 2014):

Test: label from the status in PepcDB records

| Sequence | protein production |
| --- | --- |
| AADPVVVPANMEPLTIEGNRFVTLCIMIRTTPWEVSRDVKLHPRDEVDWHTLEGVRALREAFATNNPNGRLTWGFTMNALEDGRKNYREIRDYVVECQKKYGDEVTYFPGYFPAMYLPRERVNREMSEAIEIISKMVGNGYRPQSIMGGFLSADNLRYLAEKENIHVAHAVIWSQHNIDGGGADGSPSYPFYPSTEHFCKPAQGKSDFIDCVNLDGWTMDFICARRSGQTGHGIDGYNSRRGVGPIETYKGWGLDLGHREVMHTEAIHFDKGLELNGFGWVANIWEAQMVHEFGKDLICDAMKMWVTGTKERWPDTHFVTFGEFGELWRKQYKSNDDWNYRFVERGSGLGDSYNNLEIKWFMNKEFRLALLRDWHTKNSPAYVIDFTRYDLQAHEPADPSPEKPAKDWSLINKINQKALRPQDKPVLIDKLEKEDQDLIRKYYPELLK | not failed |
| AAGIDQYALKEFTADFTQFHIGDTVPAMYLTPEYNIKQWQQRNLPAPDAGSHWTYMGGNYVLITDTEGKILKVYDGEIFYHR | not failed |
| AAGSENTNYFISLEQGEFVLTLVERGPVQEMPFFIELLDVLHDANLPVPYALRTTDGQALRELAGKPALLQPRLPGKHISEPNTQHCVQIGELLANLHLATREQVLERKTDRGLDWMLSEGRNFLSHLGETQRALLEKSLQEIEDLKPQIMALPRANLHADLFRDNVLFEGTHLTGLIDFYNACSGPMLYDLAIALNDWCSRENG | failed |
| AAKGNMQCNIFVPAGTSKGKTTQTRLYGANCIEVEGTREDVALAAIESSVTHGSHYVGHNWHPLFIEGVKSIAYEIWEQCGYKAPDNFVVPAGNGSLLAGAYIGFSELLKGGEISKLPRLFGIQSESIQPFVQTFNNKEINITSEDTIAEGIKIKRSSRMNEIVQFVKETNGNFISVNEQQIQSALKEMGAQGYFIEPTSATAFAGIAQLIKTQEIKPDELTVGVVTGNGLKATNSIEHLI | failed |
| AATDIHVHFRTPGETEKEDFGSGSLSAIYGGTTYVMDMPNNRFPITDYNAFGDKLGSIDSTSFADFSLYSMETGKNAMLLDRRSIGLKVYLGGSTNSTGTEVIEEGDIRKINEMNYPVVFHGESERCLKTHQMEEKNLRDHNLARPIDCEIEAAKYVSGLDIKTKIMAHVSSPDVTGNFLREVTPHHLLLNDEMPLGSFGKVNPPLRDSRTQKRLLDDYISGKFDILSSDHAPHTEDDKREFEFAKSGIIGVETRVPLFLALAQKKIVPLDVLYRTAIENPPSIFGIKKGKIEIGYDADFMVIDFTSMKRINDNRLHSKFPVSPFNGMDAI | failed |
| ACDNDTEPGGTAVEKMAGDWWVTVNAFIDGKEVEDPFGAGHLQMSTYNTASNSETEMWLDDLGNFWEYKLKVNVNYAARTFSTTGFVDNVTYESKVKITDGKVLEKAATTPSGMPADSIVYMVQFDDDEDGLTYKVSGFRRTGFPADDF | not failed |
| ACTQPSDWVPPAKNDALVIALKKVIGGRLSDAFHIRDKLQRRDAIAAVKDDVIQQLAGRLEVEGWNLAELLKEFGELEYRTMRDALLDTKVRIDGRSLEAVRP | not failed |
| ADDFAMEMGLACVVCRQMTVASGNQLVECQECHNLYHQDCHKPQVTDKEVNXPSRGVVLCPGTRQMKRMAQKNQK | not failed |
| ADELVMSNLHSKENYDKYSEPRGYPKGERSLNFEELKDWGPKNVIKMSTPAVNKMPHSFANLPLRFGRNVQEERSAGATANLPLRSGRNMEVSLVRRVPNLPQRFGRTTTAKSVCRMLSDLCQGSMHSPCANDLFYSMTCQHQEIQNPDQKQSRRLLFKKIDDAELKQEK | failed |
| ADLGRKITSALRSLSNATIINEEVLNAMLKEVCTALLEADVNIKLVKQLRENVKSAIDLEEMASGLNKRKMIQHAVFKELVKVKVY | not failed |
| ADNRAKKHGHADLSIYREWVDEHPTVFTGYDELTTDSKVLGLLSAGNKVNEIKAGEEVEVILEASPLYAEAGGQLGDRGQILMGDTVLKVNDVQKIGKKLWVHKATVAQGGLSVGDVVTAQVDSDWRHAARQAHTGTHLIHAALRQVLGPTAVQAGSMNKPGYLRFDFNYTESLTPRQLEEIQNITNQAVDSDWDVNTIETSLEEAKAMGALALFGENYGSEVRVIEVGGPFSIELCGGTHVTHSSQIGPVAILGESSVGSGVRRIEAYTGLDSFKYLAKEQALVENIASSMKVKPEELPDRIAALTQKLKDAEKAIADMRSAQLMAQATGLVAGAIEVNGVKLVAQRVSDVENMGDLRSLAADIKQRLDDVPAVVALVGEDASGKAPFVVGATKAAVSAGYKANAYAKILGQYIEGNGGGKPDMAQGSARNSSGFDQGIAAVKAEMSA | failed |
| AEDNLGPLPENWEMAYTENGEVYFIDHNTKTTSWLDPRCLNKQQ | not failed |
